Laboratory results reported in article PMC3885427, “NPPB and ACAN, Two Novel SHOX2 Transcription Targets Implicated in Skeletal Development” (PLoS ONE, 2014).

What was measured:
Experiment in all cases: two-hybrid; S. cerevisiae Y187 cotransformed with pGBT9 (GAL4 binding domain) and pACT2 (GAL4 activation domain) fusions; β-galactosidase liquid assay with CRPG as substrate; fragments and mutants given as percent of full-length or wild-type protein; empty vectors as negative controls
Conditions in all cases: partners not purified
[1] = target: T1, SHOX(117–292), yeast two-hybrid fusion (human, UniProt O15266 117-292)
T1 construct: SHOXa, human, residues 117-292; source: yeast two-hybrid fusion (S. cerevisiae Y187)

[2] = target: T2, SHOX(1–211), yeast two-hybrid fusion (human, UniProt O15266 1-211)
T2 construct: SHOXa, human, residues 1-211; source: yeast two-hybrid fusion (S. cerevisiae Y187)

[3] = target: T3, SHOX(117–274), yeast two-hybrid fusion (human, UniProt O15266 117-274)
T3 construct: SHOXa, human, residues 117-274; source: yeast two-hybrid fusion (S. cerevisiae Y187)

[4] = target: T4, SHOX(178–292), yeast two-hybrid fusion (human, UniProt O15266 178-292)
T4 construct: SHOXa, human, residues 178-292; source: yeast two-hybrid fusion (S. cerevisiae Y187)
T4 sequence (looked up): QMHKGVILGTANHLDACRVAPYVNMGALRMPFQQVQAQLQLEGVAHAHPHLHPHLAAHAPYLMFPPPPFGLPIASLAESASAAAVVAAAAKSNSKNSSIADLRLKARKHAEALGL

Measured: β-galactosidase units as percent of full-length SHOX

T3 sequence (O15266 117-274): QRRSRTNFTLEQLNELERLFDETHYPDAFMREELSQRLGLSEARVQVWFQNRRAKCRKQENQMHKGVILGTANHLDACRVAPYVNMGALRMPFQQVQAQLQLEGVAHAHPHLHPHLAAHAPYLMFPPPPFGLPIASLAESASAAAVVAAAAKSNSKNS
T2 sequence (O15266 1-211): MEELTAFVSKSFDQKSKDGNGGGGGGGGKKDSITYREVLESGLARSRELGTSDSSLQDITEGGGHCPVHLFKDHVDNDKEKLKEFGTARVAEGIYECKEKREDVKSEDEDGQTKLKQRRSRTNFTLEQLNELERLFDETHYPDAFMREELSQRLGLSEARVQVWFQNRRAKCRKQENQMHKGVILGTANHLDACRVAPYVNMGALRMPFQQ

B1: SHOX2a (called SHOX2 in the paper), full-length, yeast two-hybrid fusion (natural protein)
chain: not shown
notes: SHOX2a (short stature homeobox 2, isoform a), human; full-length cDNA NM_006884.3 made from IMAGE SHOX2 clone 4122010 by removing a 70 bp region; also called wild-type SHOX2; full-length SHOX2; source: yeast two-hybrid fusion (S. cerevisiae Y187)
< 50 % of the wildtype: all assays above
